{
  "source": "paper PMC8230800",
  "about": "“Interaction of Temporin-L Analogues with the E. coli FtsZ Protein” (Antibiotics, 2021)",
  "molecules": {"B1": {"name": "Native Temporin L (peptide)", "peptide": "FVQWFSKFLGRIL", "notes": "Temporin-L, amphibian antimicrobial peptide, 13 residues; also called TL; native TL"}, "B2": {"name": "TRIL (Temporin-L analogue) (peptide)", "peptide": "FVKWFKKFLTRIL", "notes": "Temporin-L with Q3K, S6K and G10T; Designed from the docking model of FtsZ with TL"}, "B3": {"name": "Escherichia coli FtsZ protein (enzyme, E. coli, UniProt P0A9A6 1-383, looked up)", "chain": "MFEPMELTNDAVIKVIGVGGGGGNAVEHMVRERIEGVEFFAVNTDAQALRKTAVGQTIQIGSGITKGLGAGANPEVGRNAADEDRDALRAALEGADMVFIAAGMGGGTGTGAAPVVAEVAKDLGILTVAVVTKPFNFEGKKRMAFAEQGITELSKHVDSLITIPNDKLLKVLGRGISLLDAFGAANDVLKGAVQGIAELITRPGLMNVDFADVRTVMSEMGYAMMGSGVASGEDRAEEAAEMAISSPLLEDIDLSGARGVLVNITAGFDLRLDEFETVGNTIRAFASDNATVVIGTSLDPDMNDELRVTVVATGIGMDKRPEITLVTNKQVQQPVMDRYQQHGMAPLTQEQKPVAKVVNDNAPQTAKEPDYLDIPAFLRKQAD", "notes": "also called recombinant FtsZ; source: E. coli BL21, overexpressed and purified as described previously [7]"}},
  "key": {"[1]": {"target": "T1, FtsZ (recombinant E. coli FtsZ) (Escherichia coli, UniProt P0A9A6)", "T1 construct": "made in house; host or cells: E. coli BL21", "assay": "GTPase activity assay (BIOMOL Green Pi release)", "type": "biochemical", "conditions": "35 µM peptide, GTP substrate, 25 mM PIPES/NaOH pH 6.8", "protocol": "The putative effect of the two TL analogues on FtsZ GTPase activity was evaluated by enzymatic assays.\nThe reaction was performed for 10 min and the Pi release was determined by measuring the absorbance at 620 nm following 25 min incubation. (b) Lineweaver−Burk plots from which the KM constants were calculated. (c) Calculated KM constants and Vmax for the enzymatic assays. The experiment was performed in duplicate and presented as mean ± standard error.\n(§1) Recombinant E. coli FtsZ was overexpressed and purified from E. coli BL21 strain as described previously. The purity of the protein was analyzed by SDS-PAGE 12.5% and its primary structure was validated by MALDI mapping strategy on a 5800 MALDI-TOF/TOF instrument (ABI Sciex, Foster City, CA, USA). The concentration of purified FtsZ was determined by Bradford’s method, using BSA as a standard. The protein was stored at −80 °C.\nThe amount of Pi released during the assembly of FtsZ was measured using BIOMOL Green phosphate reagent (Biomol, Milan, Italy) as described earlier. […] The reaction was performed for 10 min and stopped by addition of 100 µL BIOMOL Green reagent. The Pi release was determined after incubation at 25 °C for 25 min by measuring the absorbance at 620 nm. The background was subtracted from all the readings. The experiment was performed in duplicate. […]"}, "[2]": {"target": "T1, FtsZ (recombinant E. coli FtsZ)", "assay": "Fluorescence binding experiment (spectrofluorimetric titration)", "conditions": "FtsZ 12 μM, peptide 1 to 180 μM, 20 °C, excitation 280 nm, emission 347 nm, one site-specific binding fit, in duplicate; read-out: Kd of FtsZ-peptide complex", "protocol": "Right panel (d–f): Diagram plots extrapolated from fluorescence data. The experiments were performed in duplicate and the standard deviation is reported as error bars.\nas §1\nFluorescence experiments were performed using a Fluoromax-4 spectrofluorometer from Horiba Scientific, using 1 cm optical path-length quartz cell under controlled temperature conditions (Peltier control system at 20 °C). The sample was analyzed, monitoring the fluorescence intensity of aromatic residues with an excitation wavelength of 280 nm. The wavelength range explored was 295–500 nm. […] All experiments were repeated in duplicate. The change in the fluorescence intensity of the reaction set was fitted into “one site-specific binding” equation of GraphPad Prism 5 (GraphPad Software, San Diego, CA, USA)."}, "[3]": {"target": "B3", "assay": "other fluorescence titration; intrinsic fluorescence of FtsZ (12 µM), excitation 280 nm, emission 347 nm, 20 °C, peptide from 1 to 180 µM, fitted to 'one site-specific binding', duplicate", "conditions": "both partners purified"}, "[4]": {"target": "the molecule itself", "assay": "co-sedimentation; polymerization assay: FtsZ 12 µM in 25 mM PIPES/NaOH pH 6.8, 1 mM GTP, 25 °C 1 h, without or with 10, 30, 50, 70 µM peptide; centrifugation 14,000 rpm 60 min, pellet on SDS-PAGE, densitometry"}},
  "note": "Ends that are not written are not given here.",
  "data": [
    {"molecule": "Magainin-2", "values": [
      {"measurement": "effect on FtsZ GTPase activity (in words)", "setting": "[1]", "value": "no effect on the GTP activity"}
    ]},
    {"molecule": "FVKWFKKFLTRILF [TRILF]", "values": [
      {"measurement": "Kd", "setting": "[2]", "value": "4.3 ± 0.2", "unit": "µM"}
    ]},
    {"molecule": "B1", "values": [
      {"measurement": "Kd", "setting": "[3]", "value": "11 ± 1", "unit": "µM"}
    ]},
    {"molecule": "B2", "values": [
      {"measurement": "Kd", "setting": "[3]", "value": "21.4 ± 1.1", "unit": "µM"}
    ]},
    {"molecule": "B3", "values": [
      {"measurement": "binding result", "setting": "[4]", "value": "binds"}
    ]}
  ]
}
